In patent US20100261660A1 (published 2010):

target: T1, Soluble CD28-Ig (extracellular domain of human CD28 fused to the Fc portion of human IgG1) (human, UniProt P10747 19-152, biotin-conjugated (NHS-biotin) in the FACS binding assays); test: competitive FACS on transfected cells, biotin-sCD28-Ig with FITC-sCTLA-4-Ig; grade 0-2 of CD28/CTLA-4 ratio vs WT hB7-1
T1 construct: extracellular domain; bought from R&D Systems; also called sCD28-Ig; CD28-Ig Fc; not shown: Fc portion of human IgG1

Row | Binder | Binding Score
1 | Round 1 (R1) CD28BP-71 (ligand, also called R1clone71; Clone 71) ITPKSVTKRVKETVMLSCDYNTSTEELTSLRIYWQKDSKMVLAILPGKVQVWPEYKNRTITDMNDNPRIVILALRLSDSGTYTCVIQKPVLKGAYKLEHLASVRLMIRADFPVPTINDLGNPSPNIRRLICSTSGGFPRPHLYWLENGEELNATNTTLSQDPETKLYMISSELDFNMTSNHSFLCLVKYGDLTVSQTFYWQESKPTPSANQHLTWTIIIPVSAFGISVIIAVILTCLTCRNAAIRRQRRENEVEMQSCSQSP | 1
2 | Round 2 CD28D10-4 (ligand) SGITPKSVTKRVKETVMLSCDYNTSTEELTSLRIYWQKDSKMVLAILPGKVQVWPEYKNRTITDMNDNPRIVILALRLSDKGTYTCVVQKNENGSFRREHLTSVTLSIRADFPVPSITDIGHPAPNVKRIRCSASGGFPEPRLAWMEDGEELNAVNTTVDQDLDTELYSVSSELDFNVTNNHSIVCLIKYGELSVSQIFPWSKPKQEPPIDQLPFWVIIPVSGALVLTAVVLYCLACRHVARWKRTRRNEETVGTERLSPIYLGSAQSSG | 0
3 | Round 2 CD28BP-11 (ligand) SGITPKSVTKRVKETVMLSCDYNASTEELTSLRIYWQKDSKMVLAILPGKVQVWPEYKNRTITDMNDNPRIVILALRLSDKGTYTCVVQKNENGSFRREHLTSVTLSIRADFPVPSITDIGHPAPNVKRIRCSASGGFPEPRLAWMEDGEELNAVNTTVDQDLDTELYSVSSELDFNVTNNHSIVCLIKYGELSVSQIFPWSKPKQEPPIDQLPFWVIIPVSGALVLTAVVLYCLACRHVARWKRTRRNEETVGTERLSPIYLGSAQSSG | 2
4 | Round 2 CD28BP-17 (ligand) SGITPKSVTKRVKETVMLSCDYSTSTEELTSLRIYWQKDSKMVLAILPGKVQVWPEYKNRTFPDIINNLSLMILALRLSDKGTYTCVVQKNENGSFRREHLTSVTLSIRADFPVPSITDIGHPAPNVKRIRCSASGDFPEPRLAWMEDGEELNAVNTTVDQDLDTELYSVSSELDFNVTNNHSIVCLIKYGELSVSQIFPWSKPKQEPPIDQLPFWVIIPVSGALVLTVVVLYCLACRHVARWKRTRRNEETVGTERLSPIYLGSAQSSG | 2
5 | Round 2 CD28A8-6 (ligand) SGITPKSVTKRVKETVMPSCDYSTSTEELTSLRIYWQKDSKMVLAILPGKVQVWPEYKNRTITDMNDNPRIVILALRLSDSGTYTCVVQKNENGSFRREHLTSVTLSIRADFPVPSITDIGHPAPNVKRIRCSASGGFPEPRLAWMEDGEELNAVNTTVDQDLDTELYSVSSELDFNVTNNHSIVCLIKYGELSVSQIFPWSKPKQEPPIDQLPFWVIIPVSGALVLTAVVLYCLACRHVARWKRTRRNEETVGTERLSPIYLGSAQSSG | 1
6 | Round 2 CD28BP-8 (ligand) ITPKSVTKRVKETVMLSCDYNTSTEELTSLRIYWQKDSKMVLAILPGKVQVWPEYKNRTITDMNDNPRIVILALRLSDSGTYTCVIQKPVLKGAYKLEHLASVRLMIRADFPVPSITDIGHPAPNVKRIRCSASGGFPEPRLAWMEDGEELNAVNTTVDQDLDTELYSVSSELDSNVTNNHSIVCLIKYGELSVSQIFPWSKPKQEPPIDQLPFWVIIPVSGALVLTAVVLYCLACRHVARWKRTRRNEETVGTERLSPIYLGSAQSSG | 2

target: T2, Soluble CTLA-4-Ig (extracellular domain of human CTLA-4 fused to the Fc portion of human IgG1) (human, UniProt P16410 36-161, FITC-conjugated in the FACS binding assays); test: competitive FACS on transfected cells, FITC-sCTLA-4-Ig with biotin-sCD28-Ig; grade 0-2 of CTLA-4/CD28 ratio vs WT hB7-1
T2 construct: extracellular domain; bought from R&D Systems; also called sCTLA-4-Ig; CTLA-4-Ig Fc; not shown: Fc portion of human IgG1
T2 sequence (P16410 36-161): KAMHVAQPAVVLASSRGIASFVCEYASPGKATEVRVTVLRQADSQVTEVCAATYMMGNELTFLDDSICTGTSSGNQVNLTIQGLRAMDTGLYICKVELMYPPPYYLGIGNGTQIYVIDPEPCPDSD

Row | Binder | Binding Score
7 | Round 2 CTLA4BP 2x1-e2 (ligand) VIHVTKEVKEVATLSCGHNVSDEELAQTRIHWQKEKKMVLTMMSGDMNIWPEYKNRTIFDITNNLSIVILALRPSDEGTYECVVLKYEKDAFKREHLAEVTLSVKADFPTPSISDFEIPPSNIRRIICSTSGGFPEPHLSWLENGEELNAINTTVSQDPGTELYTVSSKLDFNMTTNHSFMCLIKYGHLRVNQTFNWNTPKQEHFPDNLLPSAITLISANGIFVICCLTYCFAPRCRERRRNERLRRESIHPV | 1
8 | Round 2 CTLA4 A-C9-9 (ligand) SGITPKSVTKRVKETVMLSCDYSTSTEELTSLRIYWQKDSKMVLAILPGKVQVWPEYKNRTFPDIINNLSLMILALRLSDRGTYTCVVQKNENGSFRREHLTSVTLSIRADFPVPSITDIGHPAPNVKRIRCSASGGFPEPRLAWMEDGEELNAVNTTVDQDLDTELYSVGSELDFNVTNNHSIVCLIKYGELSVSQIFPWSKPKQEPPIDQLPFWVIIPVSGALVLTAVVLYCLARRHVARWKRTRRNEETVGTERLSPIYLGSAQSSG | 0
9 | Round 2 CTLA4 A-H3-6 (ligand) GISQVTKSVKEMAALSCDYNISIDELARMRIYWQKDQQMVLSIISGQVEVWPEYKNRTFPDIINNLSLMILALRLSDKGTYTCVVQKNENGSFRREHLTSVTLSIRADFPVPSINDLGNPSPNIRRLICSTSGGFPRPHLYWLENGEELNATNTTLSQDPETKLYMISSELDFNMTSNHSFLCLVKYGDLTVSQTFYWQESKPTPSANQHLTWTIIIPVSAFGISVIIAVILTCLTCRNAAIRRQRRENEVEMQSCSQSP | 1
10 | Round 2 CTLA4BP 2x3-h2 (ligand) VIHVTKEVKEVATLSCGHNVSVEELAQTRIYWQKEKKMVLTMMSGDMNIWPEYKNRTIFDITNNLSIVILALRPSDEGTYECVVLKYEKDAFKREHLAEVMLSVKADFPTPSISDFEIPPSNIRRIICSTPGGFPEPRLAWMEDGEELNAISTTVSQDPGTELYAVSSKLDFNMTTNHSFMCLIKYGHLRVNQTFNWNTTKQEHFPDNLLPSWAITLISVKGIFVICCLTYCFAPRWRERKSNERLRRESVRPV | 0
11 | Round 2 CTLA4 A-B4-6 (ligand) ITPKSVTKRVKETVMLSCDYNTSTEELTSLRIYWQKDSKMVLAILPGKVQVWPEYKNRTITDMNDNPRIVILALRLSDKGTYTCVVQKNENGSFRREHLTSVTLSIRADFPVPTINDLGNPSPNIRRLICSTSGGFPRPHLYWLENGEELNATNTTLSQDPETKLYMISSELDFNMTSNHSFLCLVKYGDLTVSQTFYWQESKPTPSANQHLTWTIIIPVSAFGISVIIAVILTCLTCRNAAIRRQRRENEVEMQSCSQSP | 1
12 | Round 2 CTLA4 A-E2-6 (ligand) ITPKSVTKRVKETVMLSCDYNTSTEELTSLRIYWQKDSKMVLAILPGKVQVWPEYKNRTITDMNDNPRIVILALRLSDSGTYTCVVQKNENGSFRREHLTSVRLMIRADFPVPTINDLGNPSPNIRRLICSTSGGFPRPHLYWLENGEELNATNTTLPQDPETKLYMISSELDFNMTSNHSFLCLVKYGDLTVSQTFYWQESKPTPSANQHLTWTIIIPVSAFGISVIIAVILTCLTCRNAAIRRQRRENEVEMQSCSQSP | 1
13 | Round 2 CTLA4 A-F1-6 (ligand) ITPKSVTKRVKETVMLSCDYSTSTEELTSLRIYWQKDSKMVLAILPGKVQVWPEYKNRTITDMNDNPRIVILALRLSDKGTYTCVVQKNENGSFRREHLTSVRLMIRADFPVPTINDLGNPSPNIRRLICSTSGGFPRPHLYWLENGEELNATNTTLSQDPETKLYMISSELDFNMTSNHSFLCLVKYGDLTVSQTFYWQESKPTPSANQHLTWTIIIPVSAFGISVIIAVILTCLTCRNAAIRRQRRENEVEMQSCSQSP | 1
14 | Round 2 CTLA4 A-F10-1 (ligand) ITPKSVTKRVKETVMLSCDYNTSTEELTSLRIYWQKDSKMVLAILPGKVQVWPEYKNRTITDMNDNPRIVILALRLSDKGTYTCVVQKNENGSFRREHLTSVTLSIRADFPVPTINDLGNPSPNIRRLICSTSGGFPRPHLYWLENGEELNATNTTLSQDPETKLYMISSELDFNMTSNHSFLCLVKYGDLTVSQTLYWQESKPTPSANQHLTWTIIIPVSAFGISVIIAVILTCLTCRNAAIRRQRRENEVEMQSCSQSP | 1
15 | Round 2 CTLA4 A-H4-5* (ligand) ITPKSVTKRVKETVMLSCDYSTSTEELTSLRIYWQKDSKMVLAILPGKVQVWPEYKNRTITDMNDNPRIVILALRLSDKGTYTCVVQKNENGSFRREHLTSVTLSIRADFPVPSITDIGHPAPNVKRIRCSASGGFPEPRLYWLENGEELNATNTTVSQDPGTELYMISSELDFNVTNNHSIVCLIKYGELSVSQIFPWSKPKQEPPIDQLPFWVIIPVSGALVLTAVVLYCLACRHVARWKRTRRNEETVGTERLSPIYLGSAQSSG | 1
16 | Round 1 CTLA4BP-7 (ligand, also called R1-7; R1 CTLA-4BP-7) VIHVTNEVKEVATLSCGHNVSGEELAQTRIYWQKEKKMVLTMMYGDMNIWPEYKNRTIFDITNNLSIVILALRPSDEGTYECVVLKYEKDAFKREHLAEVMLSVKADFPTPSITDFEIPPSNIRRIICLTSGGFPEPRLAWMKDGEELNAISTTVSQDPGTELYAVSSKLDFNMTTNHSFMCLIKYGHLRVNQTFSWNTPKQEHFPDNLLPSWAITLISVNGIFVICCLTYCFAPRCRERRRNERLRRESVRPV | 1
17 | Round 2 CTLA4BP-5x2-11d (ligand) VIHVTKEVKEVATLSCGHNVSVEELAQTRIHWQKEKKMVLTMMSGDMNIWPEYKNRTIFDITNNLSIVILALRPSDEGTYECVVLKYEKDAFKREHLAEVMLSVKADFPTPSITDFEIPPSNIRRIICSTSGGFPEPHLFWLENGEELNAINTTVSQDPETELYTVSSKLDFNMTTDRSFVCLIKYGHLRVNQTFNWNTPKQEHFPDNLLPSWAITLISANGIFVICCLTYCFAPRCRERKSNETLRRESVRPV | 2
18 | Round 2 CTLA4BP-5x2-10c (ligand) VIHVTKEVKEVATLSCGHNVSVEELAQTRIHWQKEKKMVLTMMSGDMNIWPEYKNRTIFDITNNLSIVILALRPSDEGTYECVVLKYEKDAFKREHLAEVMLSVKADFPTPSITDFEIPPSNIRRIICSTSGGFPEPHLSWLENGEELNAINTTVSQDPETELYTVSSKLDFNMTANHSFVCLIKYGHLRVNQTFNWNTPKQEHFPDNLLPSWAITLISVNGIFVICCLTYCFAPRCRERRNETLRRESVRPV | 2
